These results are taken from the supplement of paper PMC11316812.

For one data set, the system named is MCF7. Put plainly: percentage of EdU-negative (G0-arrested) nuclei per well, 72 h; higher = more G0 arrest. The note with it: reference: sequence is the full UniProt precursor, the tested protein was the secreted form or ectodomain.
Another data set has as its system hTERT-HMEC. Described as above. The following applies: reference: sequence is the full UniProt precursor, the tested protein was the secreted form or ectodomain.
The mark [1] stands for this setting: protein concentration 0.0225 µM.
The mark [2] stands for this setting: protein concentration 0.02175 µM.
Setting [3] is: protein concentration 0.2175 µM.
Where [4] appears, read: protein concentration 0.0191325 µM.
Setting [5] is: protein concentration 0.191325 µM.
Where [6] appears, read: protein concentration 0.0175 µM.

± gives the standard deviation of the averaged measurements.
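Note: secreted proteins added to cultured cells, EdU pulse at the end, nuclei found by Hoechst imaging, EdU status from nuclear versus surrounding ring intensity ratio, PBS as neutral control.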

As to “MLLLVTSLLLCELPHPAFLLIPEKSDLRTVAPASSLNVRFDSRTMNLSWDCQENTTFSKCFLTDKKNRVVEPRLSNNECSCTFREICLHEGVTFEVHVNTSQRGFQQKLLYPNSGREGTAAQNFSCFIYNADLMNCTWARGPTAPRDVQYFLYIRNSKRRREIRCPYYIQDSGTHVGCHLDNLSGLTSRNYFLVNGTSREIGIQFFDSLLDTKKIERFNPPSNVTVRCNTTHCLVRWKQPRTYQKLSYLDFQYQLDVHRKNTQPGTENLLINVSGDLENRYNFPSSEPRAKHSVKIRAADVRILNWSSWSEAIEFGSDDGNLGSVYIYVLLIVGTLVCGIVLGFLFKRFLRIQRLFPPVPQIKDKLNDNHEVEDEIIWEEFTPEEGKGYREEVLTVKEIT”, the “percentage of EdU-negative” value was determined as 23.5 ± 1.9% in the data set on MCF7 (setting [1]), 25.3 ± 2.3% with MCF7 (protein concentration 0.225 µM), 5.11 ± 0.35% with hTERT-HMEC (setting [1]) and 4.81 ± 0.71% with hTERT-HMEC (protein concentration 0.225 µM).
Regarding “MLLPKKMKLLLFLVSQMAILALFFHMYSHNISSLSMKAQPERMHVLVLSSWRSGSSFVGQLFGQHPDVFYLMEPAWHVWMTFKQSTAWMLHMAVRDLIRAVFLCDMSVFDAYMEPGPRRQSSLFQWENSRALCSAPACDIIPQDEIIPRAHCRLLCSQQPFEVVEKACRSYSHVVLKEVRFFNLQSLYPLLKDPSLNLHIVHLVRDPRAVFRSRERTKGDLMIDSRIVMGQHEQKLKKEDQPYYVMQVICQSQLEIYKTIQSLPKALQERYLLVRYEDLARAPVAQTSRMYEFVGLEFLPHLQTWVHNITRGKGMGDHAFHTNARDALNVSQAWRWSLPYEKVSRLQKACGDAMNLLGYRHVRSEQEQRNLLLDLLSTWTVPEQIH [Q8NCG5]”, the “percentage of EdU-negative” value in the data set with MCF7 (protein concentration 0.006 µM) was 26 ± 0.23%; in the data set on MCF7 (protein concentration 0.06 µM), 29.1 ± 1.1%; in the data set with hTERT-HMEC (protein concentration 0.006 µM), 5.16 ± 0.29%; in the data set with hTERT-HMEC (protein concentration 0.06 µM), 4.77 ± 0.11%.
“MLLPLLLLLPMCWAVEVKRPRGVSLTNHHFYDESKPFTCLDGSATIPFDQVNDDYCDCKDGSDEPGTAACPNGSFHCTNTGYKPLYIPSNRVNDGVCDCCDGTDEYNSGVICENTCKEKGRKERESLQQMAEVTREGFRLKKILIEDWKKAREEKQKKLIELQAGKKSLEDQVEMLRTVKEEAEKPEREAKEQHQKLWEEQLAAAKAQQEQELAADAFKELDDDMDGTVSVTELQTHPELDTDGDGALSEAEAQALLSGDTQTDATSFYDRVWAAIRDKYRSEALPTDLPAPSAPDLTEPKEEQPPVPSSPTEEEEEEEEEEEEEAEEEEEEEDSEEAPPPLSPPQPASPAEEDKMPPYDEQTQAFIDAAQEARNKFEEAERSLKDMEESIRNLEQEISFDFGPNGEFAYLYSQCYELTTNEYVYRLCPFKLVSQKPKLGGSPTSLGTWGSWIGPDHDKFSAMKYEQGTGCWQGPNRSTTVRLLCGKETMVTSTTEPSRCEYLMELMTPAACPEPPPEAPTEDDHDEL”: the “percentage of EdU-negative” value worked out at 27.5 ± 0.87% in the data set on MCF7 (setting [2]), 24.9 ± 0.62% with MCF7 (setting [3]), 5.19 ± 1.2% in the data set on hTERT-HMEC (setting [2]) and 5.7 ± 0.68% in the data set on hTERT-HMEC (setting [3]).
“MLLPWATSAPGLAWGPLVLGLFGLLAASQPQAVPPYASENQTCRDQEKEYYEPQHRICCSRCPPGTYVSAKCSRIRDTVCATCAENSYNEHWNYLTICQLCRPCDPVMGLEEIAPCTSKRKTQCRCQPGMFCAAWALECTHCELLSDCPPGTEAELKDEVGKGNNHCVPCKAGHFQNTSSPSARCQPHTRCENQGLVEAAPGTAQSDTTCKNPLEPLPPEMSGTMLMLAVLLPLAFFLLLATVFSCIWKSHPSLCRKLGSLLKRRPQGEGPNPVAGSWEPPKAHPYFPDLVQPLLPISGDVSPVSTGLPAAPVLEAGVPQQQSPLDLTREPQLEPGEQSQVAHGTNGIHVTGGSMTITGNIYIYNGPVLGGPPGPGDLPATPEPPYPIPEEGDPGPPGLSTPHQEDGKAWHLAETEHCGATPSNRGPRNQFITHD”: the “percentage of EdU-negative” value with MCF7 (setting [4]) was 26.7 ± 0.76%; with MCF7 (setting [5]), 27.3 ± 0.76%; with hTERT-HMEC (setting [4]) it was 5.06 ± 0.25%; in the data set on hTERT-HMEC (setting [5]), 5.55 ± 1.9%.
For the sequence “MLLRGVLLALQALQLAGALDLPAGSCAFEESTCGFDSVLASLPWILNEEGHYIYVDTSFGKQGEKAVLLSPDLQAEEWSCLRLVYQITTSSESLSDPSQLNLYMRFEDESFDRLLWSAKEPSDSWLIASLDLQNSSKKFKILIEGVLGQGNTASIALFEIKMTTGYCIECDFEENHLCGFVNRWNPNVNWFVGGGSIRNVHSILPQDHTFKSELGHYMYVDSVYVKHFQEVAQLISPLTTAPMAGCLSFYYQIQQGNDNVFSLYTRDVAGLYEEIWKADRPGNAAWNLAEVEFSAPYPMEVIFEVAFNGPKGGYVALDDISFSPVHCQNQTELLFSAVEASCNFEQDLCNFYQDKEGPGWTRVKVKPNMYRAGDHTTGLGYYLLANTKFTSQPGYIGRLYGPSLPGNLQYCLRFHYAIYGFLKMSDTLAVYIFEENHVVQEKIWSVLESPRGVWMQAEITFKKPMPTKVVFMSLCKSFWDCGLVALDDITIQLGSCSSSEKLPPPPGECTFEQDECTFTQEKRNRSSWHRRRGETPTSYTGPKGDHTTGVGYYMYIEASHMVYGQKARLLSRPLRGVSGKHCLTFFYHMYGGGTGLLSVYLKKEEDSEESLLWRRRGEQSISWLRALIEYSCERQHQIIFEAIRGVSIRSDIAIDDVKFQAGPCGEMEDTTQQSSGYSEDLNEIEY [Q7Z304]”, the “percentage of EdU-negative” value with MCF7 (setting [6]) was determined as 28.1 ± 1.3%; in the data set with MCF7 (protein concentration 0.175 µM), 31.9 ± 1.8%; in the data set on hTERT-HMEC (setting [6]), 5.68 ± 0.56%; in the data set on hTERT-HMEC (protein concentration 0.175 µM), 8.11 ± 0.92%.
